Measurements as given in patent US20120316071A1 (published 2012).
Residue numbers refer to the chain shown, from its start. Names may count otherwise.

Columns and labels:
[1] = target: T1, rHuman ErbB2/Fc Chimera, CF (R&D Systems Cat#1129-ER) (human, UniProt P04626 23-652); test: ECL multispot (MSD) assay, antigen spotted on plate, 10 nM Fab;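 note: bound Fab detected with a TAG-labelled detection antibody (1 h, 20 °C), electrochemiluminescence read and compared with each well's blank, signal/blank of 4 or above scored as hit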
T1 construct: Bought recombinant Fc chimera; also called human epidermal growth factor 2 receptor; Fc part of the bought chimera not given

[2] = target: T2, rHuman Notch-1/Fc Chimera, CF (R&D Systems Cat#3647-TK) (human, UniProt P46531 19-526); test: as above
T2 construct: Bought recombinant Fc chimera; Fc part of the bought chimera not given

[3] = target: T3, rHuman P-Cadherin/Fc Chimera, CF (R&D Systems Cat#861-PC) (human, UniProt P22223 108-654); test: as above
T3 construct: Bought recombinant Fc chimera; Fc part of the bought chimera not given

[4] = target: T4, rHuman CD44/Fc Chimera, CF (R&D Systems Cat#3660-CD) (human, UniProt P16070 21-220); test: as above
T4 construct: Bought recombinant Fc chimera; Fc part of the bought chimera not given

[5] = target: T5, rHuman EGF R/Fc Chimera, CF (R&D Systems Cat#344-ER) (human, UniProt P00533 25-645); test: as above
T5 construct: Bought recombinant Fc chimera; also called epidermal growth factor receptor; Fc part of the bought chimera not given

[6] = target: T6, rHuman IGF-1 sR, CF (R&D Systems Cat#391-GR) (human, UniProt P08069 31-932); test: as above
T6 construct: Bought soluble receptor; also called insulin-like growth factor-1 soluble receptor

[7] = target: T7, Recombinant Human DLL4 (R&D Systems Cat#1506-D4/CF) (human, UniProt Q9NR61 27-524); test: as above
T7 construct: Bought recombinant protein; also called delta-like protein 4; rHuman DLL4

[8] = target: T8, rHuman HGF R/c-MET/Fc Chimera, CF (R&D Systems Cat#358-MT/CF) (human, UniProt P08581 25-932); test: as above
T8 construct: Bought recombinant Fc chimera; also called HGF R/Fc; hepatocyte growth factor receptor; Fc part of the bought chimera not given
T8 sequence (P08581 25-932, change not shown): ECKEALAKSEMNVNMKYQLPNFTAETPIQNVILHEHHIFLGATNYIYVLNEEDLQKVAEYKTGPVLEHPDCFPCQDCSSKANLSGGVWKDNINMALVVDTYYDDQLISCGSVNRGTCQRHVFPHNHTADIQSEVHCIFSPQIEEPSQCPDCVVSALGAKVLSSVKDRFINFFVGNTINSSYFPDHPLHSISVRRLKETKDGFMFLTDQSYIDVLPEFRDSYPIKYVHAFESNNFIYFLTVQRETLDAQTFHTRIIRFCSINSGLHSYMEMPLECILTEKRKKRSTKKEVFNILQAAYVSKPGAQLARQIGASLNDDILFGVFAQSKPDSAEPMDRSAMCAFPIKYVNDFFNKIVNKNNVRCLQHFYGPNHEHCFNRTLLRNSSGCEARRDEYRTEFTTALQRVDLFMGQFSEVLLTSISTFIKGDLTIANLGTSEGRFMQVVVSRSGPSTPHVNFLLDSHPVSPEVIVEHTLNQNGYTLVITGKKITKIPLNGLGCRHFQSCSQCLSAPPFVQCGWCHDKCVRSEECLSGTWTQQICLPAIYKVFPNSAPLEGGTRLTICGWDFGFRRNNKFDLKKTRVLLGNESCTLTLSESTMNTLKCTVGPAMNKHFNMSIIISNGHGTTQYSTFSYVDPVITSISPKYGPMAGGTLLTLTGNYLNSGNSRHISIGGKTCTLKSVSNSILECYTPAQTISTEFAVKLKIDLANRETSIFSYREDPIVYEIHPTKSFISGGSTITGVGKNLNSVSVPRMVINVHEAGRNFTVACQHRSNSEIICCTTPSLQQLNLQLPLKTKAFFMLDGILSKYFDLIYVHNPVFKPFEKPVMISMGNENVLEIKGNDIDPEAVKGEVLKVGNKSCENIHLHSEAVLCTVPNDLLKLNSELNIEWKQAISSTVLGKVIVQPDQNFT

[9] = target: T9, rHuman Erythropoietin R/Fc Chimera, CF (R&D Systems Cat#963-ER) (human, UniProt P19235 25-250); test: as above
T9 construct: Bought recombinant Fc chimera; also called EPO R; EPO R/Fc; Fc part of the bought chimera not given
T9 sequence (looked up): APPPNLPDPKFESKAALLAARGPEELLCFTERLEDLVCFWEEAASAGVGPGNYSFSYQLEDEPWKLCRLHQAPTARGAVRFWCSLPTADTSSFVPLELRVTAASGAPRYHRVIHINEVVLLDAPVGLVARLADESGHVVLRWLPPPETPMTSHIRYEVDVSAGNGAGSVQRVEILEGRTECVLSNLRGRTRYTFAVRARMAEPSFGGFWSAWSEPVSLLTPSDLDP

[10] = target: T10, Recombinant Human DLL4 (R&D Systems Cat#1506-D4/CF) (human, UniProt Q9NR61 27-529); test: surface plasmon resonance, Fab against recombinant human DLL4; standard deviation in parentheses
T10 construct: Bought recombinant protein; also called rHuman DLL4; delta-like protein 4

[11] = target: T11, rHuman Notch-1/Fc Chimera, CF (R&D Systems Cat#3647-TK) (human, UniProt P46531 19-526); test: ECL (MSD) multispot binding assay, antigen spotted on plate, 20 nM Fab;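 note: purified Fab incubated 1 h at 20 °C on antigen-spotted plate, bound Fab revealed with TAG detection antibody, ECL read, antigen signal divided by same-well blank, ratio ≥4 counted as hit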
T11 construct: Bought recombinant protein; Fc part of the bought chimera not given

[12] = target: T12, rHuman P-Cadherin/Fc Chimera, CF (R&D Systems Cat#861-PC) (human, UniProt P22223 108-654); test: as above
T12 construct: Bought recombinant protein; Fc part of the bought chimera not given

[13] = target: T13, Recombinant Human DLL4 (R&D Systems Cat#1506-D4/CF) (human, UniProt Q9NR61 27-524); test: as above
T13 construct: Bought recombinant protein; also called delta-like protein 4; rHuman DLL4

[14] = target: T14, rHuman IGF-1 sR, (IGF-1 sR), CF (R&D Systems Cat#391-GR) (human, UniProt P08069 31-932); test: as above
T14 construct: Bought recombinant soluble receptor; also called insulin-like growth factor-1 soluble receptor

[15] = target: T15, rHuman CD44/Fc Chimera, CF (R&D Systems Cat#3660-CD) (human, UniProt P16070 21-220); test: as above
T15 construct: Bought recombinant protein; Fc part of the bought chimera not given

[16] = target: T16, Recombinant Human DLL4 (R&D Systems Cat#1506-D4/CF) (human, UniProt Q9NR61 27-524); test: as above; remark: listed apart in the source
T16 construct: Bought recombinant protein; also called delta-like protein 4; rHuman DLL4

[17] = target: T17, rHuman Erythropoietin R/Fc Chimera, CF (R&D Systems Cat#963-ER) (human, UniProt P19235 25-250); test: as above
T17 construct: Bought reagent; also called EPO R; EPO R/Fc; Fc part of the bought chimera not given
T17 sequence (looked up): T9 sequence (looked up)

[18] = target: T18, rHuman ErbB2/Fc Chimera, CF (R&D Systems Cat#1129-ER) (human, UniProt P04626 23-652); test: as above
T18 construct: Bought reagent; also called human epidermal growth factor 2 receptor; Fc part of the bought chimera not given

[19] = target: T19, rHuman CD44/Fc Chimera, CF (R&D Systems Cat#3660-CD) (human, UniProt P16070 21-220); test: as above
T19 construct: Bought reagent; Fc part of the bought chimera not given

[20] = target: T20, rHuman P-Cadherin/Fc Chimera, CF (R&D Systems Cat#861-PC) (human, UniProt P22223 108-654); test: as above
T20 construct: Bought reagent; Fc part of the bought chimera not given

[21] = target: T21, rHuman IGF-1 sR, CF (R&D Systems Cat#391-GR) (human, UniProt P08069 31-932); test: as above
T21 construct: Bought soluble receptor; also called insulin-like growth factor-1 soluble receptor

[22] = target: T22, Recombinant Human DLL4 (human, UniProt Q9NR61 27-524); test: ECL (MSD) 96-well plate assay, DLL4 coated at 30 ug/mL, Fab 0.1 uM; signal over blank
T22 construct: Bought recombinant human DLL4 (R&D Systems Cat#1506-D4/CF), coated on the plate; also called delta-like protein 4; rHuman DLL4

[23] = target: T22, Recombinant Human DLL4; test: ECL (MSD) 96-well plate assay, DLL4 coated at 15 ug/mL, Fab 0.02 uM; signal over blank
[24] = target: T23, rHuman P-Cadherin/Fc Chimera, CF (R&D Systems Cat#861-PC) (human, UniProt P22223 108-654); test: ECL multispot (MSD) binding assay, antigen spotted on plate, Fab 0.04 uM;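 note: purified Fab incubated 1 h at 20 °C on antigen spots, detected via TAG-labelled antibody, ECL read against each well's blank, with signal-to-blank of at least 4 scored as binder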
T23 construct: Bought recombinant protein; Fc part of the bought chimera not given

[25] = target: T24, Recombinant Human DLL4 (R&D Systems Cat#1506-D4/CF) (human, UniProt Q9NR61 27-524); test: as above
T24 construct: Bought recombinant protein; also called delta-like protein 4; rHuman DLL4

B1: Fab VH1-46_IGHD6-6*01_IGHJ1*01 S102A/S103P/S104F/H111F G55A & L6_IGKJ1*01 (Fab, V domains shown)
VH: QVQLVQSGAEVKKPGASVKVSCKASGYTFTSYYMHWVRQAPGQGLEWMGIINPSAGSTSYAQKFQGRVTMTRDTSTSTVYMELSSLRSEDTAVYYCAREEYAPFSAEYFQFWGQGTLVTVSS
VL: not shown
notes: Fab (CH1 with His6/Flag tags from Plasmid A, kappa CL from Plasmid C); also called APFF G55A
ECL signal [1]: 474
ECL signal [2]: 381
ECL signal [3]: 426
ECL signal [4]: 365
ECL signal [5]: 217
ECL signal [6]: 392
ECL signal [7]: 14500
ECL signal [8]: 221
ECL signal [9]: 305

B2: Fab VH1-46_IGHD6-6*01_IGHJ1*01 S102A/S103P/S104F/H111F G56A & L6_IGKJ1*01 (Fab, V domains shown)
VH: B1 VH with A55G, G56A
VL: not shown
notes: Fab (CH1 with His6/Flag tags from Plasmid A, kappa CL from Plasmid C); also called APFF G56A
ECL signal [1]: 279
ECL signal [2]: 331
ECL signal [3]: 214
ECL signal [4]: 330
ECL signal [5]: 355
ECL signal [6]: 422
ECL signal [7]: 189000
ECL signal [8]: 313
ECL signal [9]: 466

B3: Fab VH1-46_IGHD3-10*01_IGHJ4*01 & L12_IGKJ1*01 (Fab, V domains shown)
VH: QVQLVQSGAEVKKPGASVKVSCKASGYTFTSYYMHWVRQAPGQGLEWMGIINPSGGSTSYAQKFQGRVTMTRDTSTSTVYMELSSLRSEDTAVYYCAREYYYGSGSYYNDYFDYWGQGTLVTVSS
VL: not shown
notes: Germline Fab made in E. coli: VH in Plasmid A (CH1, His6 and Flag tags), kappa VL in Plasmid C (kappa CL)
Kd [10]: 0.5 µM
koff [10]: 0.29 s⁻¹
kon [10]: 500000 M⁻¹ s⁻¹

B4: Fab VH3-23_IGHD2-21*01>3_IGHJ6*01 H100E/S108P/Y113G/Y111H & V2-13_IGLJ2*01 (Fab, V domains shown)
VH: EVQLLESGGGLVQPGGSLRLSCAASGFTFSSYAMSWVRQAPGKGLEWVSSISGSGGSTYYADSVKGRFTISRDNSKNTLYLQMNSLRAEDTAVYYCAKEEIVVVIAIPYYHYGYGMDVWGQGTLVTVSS
VL: SSELTQDPAVSVALGQTVRITCQGDSLRSYYASWYQQKPGQAPVLVIYGKNNRPSGIPDRFSGSSSGNTASLTITGAQAEDEADYYCNSRDSSGNHLVVFGGGTKLTVL
notes: Fab made in E. coli: VH joined to CH1 (with His and Flag tags, plasmid A) and VL to lambda CL (plasmid E); also called EPG Y111H
ECL signal/blank ratio [11]: 1.5
ECL signal/blank ratio [12]: 7.7
ECL signal/blank ratio [13]: 1.6
ECL signal/blank ratio [14]: 1.2
ECL signal/blank ratio [15]: 1.3

B5: Fab VH3-23_IGHD2-21*01>3_IGHJ6*01 H100E/S108P/Y113G Y114H & V2-13_IGLJ2*01 (Fab, V domains shown)
VH: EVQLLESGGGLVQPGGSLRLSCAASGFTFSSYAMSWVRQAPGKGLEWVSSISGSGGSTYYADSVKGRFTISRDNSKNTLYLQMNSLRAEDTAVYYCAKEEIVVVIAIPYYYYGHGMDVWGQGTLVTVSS
VL: B4 VL
notes: Tested as Fab made in E. coli (VH-CH1 with His and Flag tags; lambda CL); also called EPG Y114H
ECL multispot value [16]: 2.3
ECL multispot value [17]: 120
ECL multispot value [18]: 12.5
ECL multispot value [19]: 1.8
ECL multispot value [20]: 27
ECL multispot value [21]: 1.4

B6: Fab VH5-51_IGHD5-18*01>3_IGHJ4*01 & V3-4_IGLJ1*01 (Fab, V domains shown)
VH: EVQLVQSGAEVKKPGESLKISCKGSGYSFTSYWIGWVRQMPGKGLEWMGIIYPGDSDTRYSPSFQGQVTISADKSISTAYLQWSSLKASDTAMYYCARRGYSYGYDYFDYWGQGTLVTVSS
VL: QTVVTQEPSFSVSPGGTVTLTCGLSSGSVSTSYYPSWYQQTPGQAPRTLIYSTNTRSSGVPDRFSGSILGNKAALTITGAQADDESDYYCVLYMGSGISYVFGTGTKVTVL
notes: Germline Fab made in E. coli: VH in Plasmid A (CH1, His6 and Flag tags), lambda VL in Plasmid E (lambda CL)
Kd [10]: 4.8 µM

B7: Fab VH5-51_IGHD5-18*01>3_IGHJ4*01 G104M & V3-4_IGLJ1*01 (Fab, V domains shown)
VH: B6 VH with G104M
VL: B6 VL
notes: Fab; VH-CH1 (His6/Flag, Plasmid A) and VL-lambda CL (Plasmid E)
Signal/Noise [22]: 29.1
Signal/Noise [23]: 12.3

B8: Fab VH5-51_IGHD5-18*01>3_IGHJ4*01 G100K/G104T (H:KT) & V3-4_IGLJ1*01 G97A (Fab, V domains shown)
VH: B6 VH with G100K, G104T
VL: B6 VL with G97A
notes: Fab; Expressed from Plasmid A (CH1, His6 and Flag tags) and Plasmid E (lambda CL); also called KT & G97A
ECL signal [24]: 474
ECL signal [25]: 14900

B9: Fab VH5-51_IGHD5-18*01>3_IGHJ4*01 G104A & V3-4_IGLJ1*01 (Fab, V domains shown)
VH: B6 VH with G104A
VL: B6 VL
notes: as for B7
Signal/Noise [22]: 6.7
Signal/Noise [23]: 2.6

B10: Fab VH5-51_IGHD5-18*01>3_IGHJ4*01 G104S & V3-4_IGLJ1*01 (Fab, V domains shown)
VH: B6 VH with G104S
VL: B6 VL
notes: as for B7
Signal/Noise [22]: 47.8
Signal/Noise [23]: 25.6

B11: Fab VH5-51_IGHD5-18*01>3_IGHJ4*01 G100T & V3-4_IGLJ1*01 (Fab, V domains shown)
VH: B6 VH with G100T
VL: B6 VL
notes: as for B7
Signal/Noise [22]: 26
Signal/Noise [23]: 11

B12: Fab VH5-51_IGHD5-18*01>3_IGHJ4*01 G104K & V3-4_IGLJ1*01 (Fab, V domains shown)
VH: B6 VH with G104K
VL: B6 VL
notes: as for B7
Signal/Noise [22]: 17.6
Signal/Noise [23]: 9.1

B13: Fab VH5-51_IGHD5-18*01>3_IGHJ4*01 G100R & V3-4_IGLJ1*01 (Fab, V domains shown)
VH: B6 VH with G100R
VL: B6 VL
notes: as for B7
Signal/Noise [22]: 90.6
Signal/Noise [23]: 39.9

B14: Fab VH5-51_IGHD5-18*01>3_IGHJ4*01 G104D & V3-4_IGLJ1*01 (Fab, V domains shown)
VH: B6 VH with G104D
VL: B6 VL
notes: as for B7
Signal/Noise [22]: 42.5
Signal/Noise [23]: 23.2

B15: Fab VH6-1_IGHD3-3*01_IGHJ4*01 & V4-3_IGLJ4*01 (Fab, V domains shown)
VH: QVQLQQSGPGLVKPSQTLSLTCAISGDSVSSNSAAWNWIRQSPSRGLEWLGRTYYRSKWYNDYAVSVKSRITINPDTSKNQFSLQLNSVTPEDTAVYYCAREYYDFWSGYYTDYFDYWGQGTLVTVSS
VL: QPVLTQPTSLSASPGASARLTCTLRSGINLGSYRIFWYQQKPESPPRYLLSYYSDSSKHQGSGVPSRFSGSKDASSNAGILVISGLQSEDEADYYCMIWHSSASFVFGGGTQLIIL
notes: as for B6
Kd [10]: 38 µM
